Patent US11110182B2, “Multifunctional RNA nanoparticles and methods for treating cancer and therapeutic resistant cancer” (University of Cincinnati, priority 2016, dated 2021)

B1: pRNA-HER2apt-siMED1: 3-WJ pRNA nanoparticle bearing a HER2-targeting RNA aptamer and two different MED1 siRNAs; strands p1 SEQ ID NO: 3, p2 SEQ ID NO: 4 (nucleic acid)
chain 1: GGACAGUGAAAGUGAGUCAAAGGAUCAAUCAUGGCCAAAGAUGUUACUUUGAGAGCCUU
chain 2: GGCUCUCAAAGUAACAUCUAAGGCCAUGUGUAUGUGGGGGGAGGACGAUGCGGUCUGCUGUGCUUGAUAUGCCCCAGACGACUCGCCCCCCACAUACUUUGUUGAUCCAAUGACUCACUUUCACUGUCCUU
modifications: 2'-F modification; third strand may lack entry; pRNA-HER2apt-siMED1, p1; pRNA-HER2apt-siMED1, p2
B2: pRNA-HER2apt^mut-siMED1: control pRNA nanoparticle with mutant HER2 aptamer; strands p1 SEQ ID NO: 5, p2 SEQ ID NO: 6 (nucleic acid)
chain 1: GGACAGUGAAAGUGAGUCAAAGGAUCAAUCAUGGCCAAAGAUGUUACUUUGAGAGCCUU
chain 2: GGCUCUCAAAGUAACAUCUAAGGCCAUGUGUAUGUGGGAUGAGGAGUAUGAAGAUACCUGUACUUGAUAUGCCCCAGACGACAUUCCCCCCACAUACUUUGUUGAUCCAAUGACUCACUUUCACUGUCCUU
modifications: pRNA-HER2apt(mut)-siMED1, p1; pRNA-HER2apt(mut)-siMED1, p2

System: BT474 orthotopic xenograft tumors
Assay: In vivo targeting and biodistribution imaging of AF647-labeled nanoparticles
Design: species or system mice
Settings: for signals in liver and kidney, biodistribution: AF647 fluorescence of excised organs; for accumulation in the xenograft tumors, biodistribution of excised organs and tumors: AF647 fluorescence of excised tumors; for localization in frozen tumor sections (penetration to tumor cells): confocal microscopy, microvessels stained with anti-CD31
Description: FIG. 2A) Confocal microscopy analyses of the internalization of AF647-labeled control and pRNA-HER2apt-siMED1 nanoparticles by BT474 cells. Scale bar: 10 μm. FIG. 2B) Flow cytometry assays of the cellular uptake of AF647-labeled control and pRNA-HER2apt-siMED1 nanoparticles by BT474 cells. FIG. 2C) IVIS Lumina live imaging of BT474 orthotopic xenograft mice 24 hrs after i.v. injection of indicated AF647-labeled pRNA nanoparticles (10 mg/Kg). FIG. 2D) Major organs and tumors of above mice were excised and imaged for AF647 fluorescence. FIG. 2E) Frozen tumor sections were examined for localization of AF647-labeled pRNA nanoparticles (red) using confocal microscopy. The blood vessels were stained with anti-CD31 primary antibody and Alexa488-conjugated secondary antibody (green). The nuclei were stained with DAPI (blue). Scale bar: 50 μm. FIG. 2F) The fluorescence intensity of AF647-labeled pRNA nanoparticles (red) in frozen tumor sections was quantified with Image-pro Plus software.
Migration and metastasis assay. The 8-μm-pore-size polycarbonate membrane, which separates the two chambers of a 6.5-mm Transwell (Costar), was coated with or without 1:8 DMEM-diluted Matrigel (Corning). Transwell assay was performed as previously described.^57 Briefly, BT474 cells were treated with pRNAs alone or together with 4-hydroxy-tamoxifen (4-OHT) for 48 h and starved with serum-free DMEM containing 0.2% BSA overnight. On the next day, cells were collected and 2×10^5 cells were seeded to the upper chamber of Transwell. The lower chamber was filled with 600 μL DMEM medium containing 10% FBS. After incubation at 37° C. for 24 h, cells on the membranes were fixed and stained with 0.1% crystal violet in 20% ethanol solution. Cells at top side of membranes were removed completely, and cells at the bottom side were examined with an Olympus SZX12 microscope and counted. • Mammosphere culture and breast cancer stem cell analyses. BT474 cells were treated with pRNAs for 48 h. Then, cells were suspended in DMEM/F12 medium supplemented with 1×B27 (Thermo Fisher), 20 ng/mL bFGF and 20 ng/mL EGF (R&D), and added into 24-well ultralow attachment plates. After treatment with or without 1 μM 4-OHT for 7 days, mammosphere formation was recorded using an Axiovert S100 TV inverted microscope (Zeiss). Xenograft tumor tissues were cut into small pieces and digested with trypsin and collagenase at 37° C. for 1 h, and tumor cells were collected and rinsed with pre-cold PBS. All cells were stained with FITC-conjugated anti-CD44 antibody and PE-conjugated anti-CD24 antibody (BD Pharmingen) in the dark on ice for 30 min. After resuspension with 0.5 mL PBS buffer, CD44^+/CD24^−/low cell population was analyzed by flow cytometry. • Orthotopic xenograft breast tumor mouse model, in vivo imaging and anti-tumor therapy. Six-week-old female athymic nude mice were purchased from Charles River Laboratories, and all animal procedures were performed under IACUC-approved protocols at the University of Cincinnati. Athymic nude mice were orthotopically injected with 1×10^7 BT474-luc cells mixed with matrigel into the fat pads of the forth pair of mammary glands. When the tumor sizes reached 100-150 mm^3, the mice were randomly divided into four groups (4/group) and intravenously (i.v.) injected with pRNAs (4 mg/Kg) once a week for three weeks. For tamoxifen treatments, 0.5 mg tamoxifen (Sigma) dissolved in sesame oil was intraperitoneally (i.p.) injected into mice 5 days a week for three weeks. The tumor volume was monitored every 3 days, and tumor size was calculated using the formula: volume=0.5×(width)^2×(length). For in vivo pRNA nanoparticle targeting and tumor imaging, mice were i.v. injected with AF647-conjugated pRNA nanoparticles or i.p. injected with D-luciferin and imaged using the IVIS Lumina imaging system with Living Images 3.0 software (Caliper Life Sciences). […]

Molecule	accumulation in the area of the xenograft tumor, live animal imaging (AF647-conjugated, 10 mg/Kg i.v., 24 hrs)	signals in liver and kidney, biodistribution	accumulation in the xenograft tumors, biodistribution of excised organs and tumors	localization in frozen tumor sections (penetration to tumor cells)
B1	strongly accumulated	low levels of residual signals	predominant accumulation	very effectively penetrated to tumor cells
B2		low levels of residual signals	not	remained in the microvessels
